Data: patent US20100168443A1, “Ethoid-Containing Compounds, Methods for Preparing Ethoid-Containing Compounds, and Methods of Use” (UNIVERSITY OF VIRGINIA PATENT FOUNDATION, priority 2006, published 2010)
Each block holds one molecule with its values, some of them ahead of it. Where a SMILES comes first, the peptide text is derived from it. Where no end group is shown, it is not given here. [ ]: non-standard residue; d: D form. NMeF = CN[C@@H](Cc1ccccc1)C(=O)O; Nle = CCCC[C@H](N)C(=O)O

Key:
[1] = target: T1, Tachykinin NK2 HUMAN receptor (Homo sapiens, UniProt P21452); details: radioligand; Human recombinant (CHO cells); cited from earlier work
T1 construct: host or cells: CHO
T1 sequence (P21452 1-398): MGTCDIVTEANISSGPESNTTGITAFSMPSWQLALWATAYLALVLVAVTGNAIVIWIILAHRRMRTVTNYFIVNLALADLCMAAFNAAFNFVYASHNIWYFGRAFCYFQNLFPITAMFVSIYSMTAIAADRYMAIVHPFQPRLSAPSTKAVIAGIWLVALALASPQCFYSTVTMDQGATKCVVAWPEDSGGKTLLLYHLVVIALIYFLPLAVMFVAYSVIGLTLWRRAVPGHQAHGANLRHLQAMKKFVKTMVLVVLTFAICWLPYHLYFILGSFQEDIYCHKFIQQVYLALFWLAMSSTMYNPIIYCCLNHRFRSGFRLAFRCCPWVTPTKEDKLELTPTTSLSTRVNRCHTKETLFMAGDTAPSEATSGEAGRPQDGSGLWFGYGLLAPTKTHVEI

DPP-4 peptidase = target: T2, DPP-4 peptidase (Homo sapiens, UniProt P27487); experiment: DPP4 enzyme stability assay; assay type: in vitro ADME; details: 1 mU DPP-4, tris buffer pH 7.5, 37° C, up to 8 hours incubation
T2 construct: purchased Sigma-Aldrich

[2] = target: human GnRH recombinant receptor (AequoScreen cell line, FAST-0160A) (human) (UniProt P30968); experiment: cell-based or functional assay
[3] = target: T3, Tachykinin NK3 human receptor (human recombinant, CHO cells) (human, UniProt P29371 1-465); experiment: radioligand binding, human recombinant NK3 in CHO cells (MDS Pharma assay #255710; printed as assay parameter)
T3 construct: whole, on cells
T3 sequence (looked up): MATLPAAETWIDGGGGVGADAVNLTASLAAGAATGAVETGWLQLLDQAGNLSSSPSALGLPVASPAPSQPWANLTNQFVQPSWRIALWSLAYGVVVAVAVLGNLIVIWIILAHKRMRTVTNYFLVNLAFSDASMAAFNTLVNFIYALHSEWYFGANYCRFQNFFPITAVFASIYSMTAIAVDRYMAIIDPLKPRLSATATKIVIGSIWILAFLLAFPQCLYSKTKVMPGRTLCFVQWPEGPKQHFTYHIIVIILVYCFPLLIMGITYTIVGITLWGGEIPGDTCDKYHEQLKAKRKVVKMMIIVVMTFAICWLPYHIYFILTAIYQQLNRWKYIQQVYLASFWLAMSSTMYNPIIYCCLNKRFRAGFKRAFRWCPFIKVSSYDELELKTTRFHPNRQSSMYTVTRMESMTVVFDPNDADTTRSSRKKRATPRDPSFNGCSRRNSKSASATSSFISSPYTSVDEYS

Chain of human GnRH recombinant receptor (AequoScreen cell line, FAST-0160A) (human) (P30968 whole entry): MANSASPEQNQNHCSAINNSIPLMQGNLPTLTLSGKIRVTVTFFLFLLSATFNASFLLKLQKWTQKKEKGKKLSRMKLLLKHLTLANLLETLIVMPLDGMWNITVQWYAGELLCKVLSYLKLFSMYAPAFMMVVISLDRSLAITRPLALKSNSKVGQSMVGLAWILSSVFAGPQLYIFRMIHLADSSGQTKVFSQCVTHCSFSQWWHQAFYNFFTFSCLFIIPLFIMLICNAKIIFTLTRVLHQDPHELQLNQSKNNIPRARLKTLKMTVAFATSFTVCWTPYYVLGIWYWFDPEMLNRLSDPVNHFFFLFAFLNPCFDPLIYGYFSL
T2 sequence (P27487 whole entry): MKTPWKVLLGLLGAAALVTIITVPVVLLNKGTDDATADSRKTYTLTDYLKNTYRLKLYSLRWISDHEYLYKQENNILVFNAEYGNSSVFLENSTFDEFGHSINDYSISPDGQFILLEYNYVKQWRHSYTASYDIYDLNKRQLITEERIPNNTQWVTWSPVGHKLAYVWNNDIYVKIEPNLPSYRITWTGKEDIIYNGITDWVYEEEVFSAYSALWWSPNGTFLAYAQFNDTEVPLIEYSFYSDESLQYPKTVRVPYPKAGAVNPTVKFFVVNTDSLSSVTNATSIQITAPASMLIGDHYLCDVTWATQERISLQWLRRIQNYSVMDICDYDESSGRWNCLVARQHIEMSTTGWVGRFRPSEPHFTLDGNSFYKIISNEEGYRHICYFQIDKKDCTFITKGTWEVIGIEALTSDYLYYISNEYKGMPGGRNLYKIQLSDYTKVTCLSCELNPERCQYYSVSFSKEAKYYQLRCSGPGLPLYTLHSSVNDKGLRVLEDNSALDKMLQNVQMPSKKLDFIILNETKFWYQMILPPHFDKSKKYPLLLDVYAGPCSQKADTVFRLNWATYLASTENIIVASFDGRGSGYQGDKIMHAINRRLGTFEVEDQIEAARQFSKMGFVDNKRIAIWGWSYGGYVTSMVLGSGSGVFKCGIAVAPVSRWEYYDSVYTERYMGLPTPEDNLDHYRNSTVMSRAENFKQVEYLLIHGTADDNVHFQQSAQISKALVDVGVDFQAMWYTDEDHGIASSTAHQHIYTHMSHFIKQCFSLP

Molecule: CC(=O)NC1(c2ccccc2)CCN(CC[C@H](CN(C)C(=O)c2ccccc2)c2ccc(Cl)c(Cl)c2)CC1 [[3H] SR-48968]
Kd [1]: 0.25 nM

Molecule: DMHDFF[NMeF]GLM-NH2 (ends and bridges not checked; also: 125I label, position not given here) [[125I] MePhe7-Neurokinin B]
Kd [3]: 0.28 nM

The remaining lines, values ahead:

DPP-4 peptidase resistance (degradation by HPLC-MS) (DPP-4 peptidase): substantially cleaved
Molecule: CCCC[C@H](NC(=O)[C@@H](NC(=O)[C@H](CC(=O)O)NC(=O)[C@H](CCC(N)=O)NC(=O)[C@H](CC(C)C)NC(=O)[C@H](CC(C)C)NC(=O)[C@H](CCCCN)NC(=O)[C@H](CCCNC(=N)N)NC(=O)[C@H](C)NC(=O)[C@H](CO)NC(=O)[C@H](CC(C)C)NC(=O)[C@H](CCC(N)=O)NC(=O)CNC(=O)[C@H](CC(C)C)NC(=O)[C@@H](NC(=O)[C@H](CCCCN)NC(=O)[C@H](CCCNC(=N)N)NC(=O)[C@H](Cc1ccc(O)cc1)NC(=O)[C@H](C)NC(=O)[C@H](C)NC(=O)[C@@H](NC(=O)[C@H](Cc1ccccc1)NC(=O)[C@@H](NC(=O)[C@H](C)NC(=O)[C@H](CC(=O)O)NC(=O)[C@H](C)NC(=O)[C@@H](N)Cc1ccc(O)cc1)[C@@H](C)CC)[C@@H](C)O)C(C)C)[C@@H](C)CC)C(=O)N[C@@H](CO)C(=O)N[C@@H](CCCNC(=N)N)C(N)=O [peptide control] (H-YADAIFTAAYRKVLGQLSARKLLQDI[Nle]SR-NH2)

EC50, aequorin luminescence agonist assay (AequoScreen cells) [2]: 0.14 nM
EC50, historical value of the same assay [2]: 0.38 nM
Molecule: [D-Trp6] LHRH (Bachem, H4075) (peptide)
